Eleven molecules from US20160207973A1 (Pfizer, published 2016) can be followed below.

B1: Noggin (other, UniProt Q13253 28-232, looked up)
chain: QHYLHIRPAPSDNLPLVDLIEHPDPIFDPKEKDLNETLLRSLLGGHYDPGFMATSPPEDRPGGGGGAAGGAEDLAELDQLLRQRPSGAMPSEIKGLEFSEGLAQGKKQRLSKKLRRKLQMWLWSQTFCPVLYAWNDLGSRFWPRYVKVGSCFSKRSCSVPEGMVCKPSKSVHLTVLRWRCQRRGGQRCGWIPIQYPIISECKCSC
B3: wild type BMP2 homodimer (ligand)
chain: QAKHKQRKRLKSSCKRHPLYVDFSDVGWNDWIVAPPGYHAFYCHGECPFPLADHLNSTNHAIVQTLVNSVNSKIPKACCVPTELSAISMLYLDENEKVVLKNYQDMVVEGCGCR
modifications: N-linked glycan at N56 (CHO-produced)
notes: also called BMP2WT; WT BMP2
B4: ALK6 receptor-human-IgG1-Fc fusion protein (Fc fusion, UniProt O00238 14-126, looked up)
chain: KKEDGESTAPTPRPKVLRCKCHHHCPEDSVNNICSTDGYCFTMIEEDDSGLPVVTSGCLGLEGSDFQCRDTPIPHQRRSIECCTERNECNKDLHPTLPPLKNRDFVDGPIHHR
notes: extracellular domain; See note of m11; also called BMPRIb; not shown: human IgG1 Fc
B7: designer BMP-GER (ligand)
chain: QAKHKQRKRLKSSCKRHPLYVDFSDVGWNDWIIAPRGYAAFYCDGECSFPLNAHMNATNHAIVQTLVHLMNPEYVPKPCCAPTELNAISVLYFDDNSNVILKNYQDMVVEGCGCR
notes: also called BMPGE P36R
B8: ALK3 receptor-human-IgG1-Fc fusion protein (Fc fusion, UniProt P36894 24-152, looked up)
chain: QNLDSMLHGTGMKSDSDQKKSENGVTLAPEDTLPFLKCYCSGHCPDDAINNTCITNGHCFAIIEEDDQGETTLASGCMKYEGSDFQCKDSPKAQLRRTIECCRTNLCNQYLQPTLPPVVIGPFFDGSIR
notes: extracellular domain; See note of m11; also called BMPRIa; not shown: human IgG1 Fc
B9: ActRIIB receptor-human-IgG1-Fc fusion protein (Fc fusion, UniProt Q13705 19-137, looked up)
chain: SGRGEAETRECIYYNANWELERTNQSGLERCEGEQDKRLHCYASWRNSSGTIELVKKGCWLDDFNCYDRQECVATEENPQVYFCCCEGNFCNERFTHLPEAGGPEVTYEPPPTAPTLLT
notes: extracellular domain; See note of m11; also called ATRIIB; not shown: human IgG1 Fc
B10: ALK2 receptor-human-IgG1-Fc fusion protein (Fc fusion, UniProt Q04771 21-123, looked up)
chain: MEDEKPKVNPKLYMCVCEGLSCGNEDHCEGQQCFSSLSINDGFHVYQKGCFQVYEQGKMTCKTPPSPGQAVECCQGDWCNRNITAQLPTKGKSFPGTQNFHLE
notes: extracellular domain; also called ActRIa; ActRI; not shown: human IgG1 Fc
B11: BMPRII receptor-human-IgG1-Fc fusion protein (Fc fusion, UniProt Q13873 27-150, looked up)
chain: SQNQERLCAFKDPYQQDLGIGESRISHENGTILCSKGSTCYGLWEKSKGDINLVKQGCWSHIGDPQECHYEECVVTTTPPSIQNGTYRFCCCSTDLCNVNFTENFPPPDTTPLSPPHSFNRDET
notes: extracellular domain; See note of m11; also called BMPR IIA; BMPRIIA; not shown: human IgG1 Fc

One assay deals with T1, designer BMPE (N-linked glycan at N56 (CHO-produced)).
T1 chain: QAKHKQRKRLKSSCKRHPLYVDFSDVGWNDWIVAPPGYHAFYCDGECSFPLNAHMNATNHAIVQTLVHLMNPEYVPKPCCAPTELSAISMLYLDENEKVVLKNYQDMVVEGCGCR
Briefly: cell-based or functional assay.

For the assay “designer BMP-GER”, the target named is B7. Briefly: cell-based or functional assay.
The target in assay [1] is T2, ALK2 receptor-human-IgG1-Fc fusion protein (human), Q04771.
T2 chain: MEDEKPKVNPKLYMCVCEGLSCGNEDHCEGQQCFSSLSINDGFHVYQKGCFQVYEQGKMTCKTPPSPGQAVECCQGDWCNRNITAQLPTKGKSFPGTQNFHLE
The assay is described as follows: BLI (Octet), receptor-Fc on anti-human IgG tips. As to conditions: remark: other sources report otherwise.

Assay [2] addresses B11. Briefly: BLI (Octet), receptor-Fc on anti-human IgG tips. The procedure: (§1) The Octet QK analysis was performed at […] in TBS with 0.1% Tween-20. Samples were agitated at 1000 rpm. […] Each BMP was prepared as a sevenfold serial dilution (typically 200-3 nM in singlicate) plus buffer blanks. Each Receptor/BMP binding pair was run at least in duplicate. Association was monitored for 10 min and dissociation was followed for […] into buffer alone. Kinetic parameters (kon and koff) and affinities (KD) were calculated using the Octet Data Analysis software 6.0 using a partial binding 1:1 model following manufacturer's instructions.

Assay [3] addresses B11. Briefly: BLI (Octet), receptor-Fc on anti-human IgG tips. The method, then:
as §1
The source holds these as a separate data set.

Assay [4] addresses B3. The assay is described as follows: BLI (Octet), receptor-Fc on anti-human IgG tips. The procedure:
as §1

Assay [5] addresses T3, wild type BMP6 homodimer (Homo sapiens (Human), UniProt P22004 375-513, N-linked glycan at N80 (CHO-produced)).
T3 construct: Produced in CHO cells; also called WT BMP6; BMP6/6
T3 sequence: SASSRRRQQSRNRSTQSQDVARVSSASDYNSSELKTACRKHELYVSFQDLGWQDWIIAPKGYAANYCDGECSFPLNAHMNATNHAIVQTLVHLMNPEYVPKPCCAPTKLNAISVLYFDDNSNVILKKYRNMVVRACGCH
The assay is described as follows: BLI (Octet), receptor-Fc on anti-human IgG tips. The method, then:
as §1

Assay [6] has as its target T4, wild type BMP2/6 heterodimer (human, UniProt P12643 283-396; P22004 375-513). The assay is described as follows: BLI (Octet), receptor-Fc on anti-human IgG tips. The procedure: as §1
The target in assay [7] is B3. Briefly: BLI (Octet), receptor-Fc on anti-human IgG tips. The procedure: as §1
The source holds these as a separate data set.

Assay [8] addresses T3, wild type BMP6 homodimer. Briefly: BLI (Octet), receptor-Fc on anti-human IgG tips. The procedure: as §1
The source holds these as a separate data set.

Assay [9] has as its target T4, wild type BMP2/6 heterodimer. The assay is described as follows: BLI (Octet), receptor-Fc on anti-human IgG tips. The procedure: as §1
This is another data set of the same source.

For assay [10], the target named is B9. The assay is described as follows: ActRIIb affinity; method not given.
The assay “Noggin” has as its target B1. Briefly: Noggin affinity; method and unit not stated.
Assay [11] addresses B10. Briefly: BLI (Octet), receptor-Fc on anti-human IgG tips. The method, then: as §1
Assay [12] addresses B8. The assay is described as follows: BLI (Octet), receptor-Fc on anti-human IgG tips. The method, then:
as §1

Assay [13] deals with B4. Briefly: BLI (Octet), receptor-Fc on anti-human IgG tips. The method, then: as §1
For assay [14], the target named is T5, ActRIIA receptor-human-IgG1-Fc fusion protein (human, UniProt P27037 20-135, limits assumed).
T5 construct: extracellular domain; See note of m11; not shown: human IgG1 Fc
The assay is described as follows: BLI (Octet), receptor-Fc on anti-human IgG tips. The procedure:
as §1

For assay [15], the target named is B9. Briefly: BLI (Octet), receptor-Fc on anti-human IgG tips. The method, then: as §1
In assay [16] the target is T3, wild type BMP6 homodimer. Briefly: BLI (Octet), receptor-Fc on anti-human IgG tips; Table 13: weak binding, 700 nM. The method, then:
as §1

Where two headings read alike, the source gives them in different places.

T5 sequence (P27037 20-135 limits assumed): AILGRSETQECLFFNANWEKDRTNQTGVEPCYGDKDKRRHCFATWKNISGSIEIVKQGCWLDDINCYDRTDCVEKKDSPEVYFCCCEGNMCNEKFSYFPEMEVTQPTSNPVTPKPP

B1: the results for the “IC50 (read off the curve)” value with designer BMPE and with designer BMP-GER were ~0.09 µg/mL and ~0.04 µg/mL, respectively.

B2: wild type BMP2/6 heterodimer, P12643 283-396; P22004 375-513 (ligand)
chain 1: QAKHKQRKRLKSSCKRHPLYVDFSDVGWNDWIVAPPGYHAFYCHGECPFPLADHLNSTNHAIVQTLVNSVNSKIPKACCVPTELSAISMLYLDENEKVVLKNYQDMVVEGCGCR
chain 2: SASSRRRQQSRNRSTQSQDVARVSSASDYNSSELKTACRKHELYVSFQDLGWQDWIIAPKGYAANYCDGECSFPLNAHMNATNHAIVQTLVHLMNPEYVPKPCCAPTKLNAISVLYFDDNSNVILKKYRNMVVRACGCH
B2: the Kd in [1] came to 250 nM.
As for B3, the Kd in [2] and in assay [3] was 62 nM throughout.
With B4, the Kd with wild type BMP2 homodimer [4] is 1 nM; with wild type BMP6 homodimer [5], 20 nM; in assay [6] it was 0.5 nM; with wild type BMP2 homodimer [7], 1 nM; with wild type BMP6 homodimer [8], 20 nM; in assay [9], 0.5 nM.

B5: designer BMP-E-NR (ligand)
chain: QAKHKQRKRLKSSCKRHPLYVDFSDVGWNDWIVAPPGYHAFYCDGECSFPLNAHMNATNHAIVQTLVHLMNPEYVPKPCCAPTKLRPMSMLYYDDGQNIIKKDIQNMIVEECGCS
Molecule B5 returned a Kd in [10] of 0.5 nM. Besides, in the assay with Noggin, the “Noggin Affinity” value came to 6.

B6: designer BMP-GER-NR (ligand)
chain: QAKHKQRKRLKSSCKRHPLYVDFSDVGWNDWIIAPRGYAAFYCDGECSFPLNAHMNATNHAIVQTLVHLMNPEYVPKPCCAPTKLRPMSMLYYDDGQNIIKKDIQNMIVEECGCS
The molecule B6 registered a Kd in assay [10] of 0.07 nM. Moreover, the “Noggin Affinity” value with Noggin was found to be 7.5.
As for B7, the Kd in [10] was 2 nM; in [11], 2 nM; in [12], 2 nM; in assay [13], 1 nM; in assay [14], 2 nM; in assay [15], 0.5 nM. The molecule further showed a dissociation constant Kd in [3] of 3.5 nM. For the same molecule, the “Noggin Affinity” value in the assay with Noggin was found to be 4.
Consider B8, for which the Kd with wild type BMP6 homodimer [5] and with wild type BMP6 homodimer [8] was 11 nM in each case.
Consider B9, for which the Kd with wild type BMP6 homodimer [5] stood at 0.5 nM; in [6], 1 nM; with wild type BMP6 homodimer [8], 0.5 nM; in assay [9], 1 nM.
In turn, B10 registered a Kd in the assay with wild type BMP6 homodimer [16] of 700 nM.
For B11, the Kd with wild type BMP6 homodimer [5] is 4 nM; in [6], 3 nM; with wild type BMP6 homodimer [8] it was 4 nM; in assay [9], 3 nM.
